From patent US20220017604A1 (WASHINGTON UNIVERSITY, published 2022)
Where “and” joins values, the source holds several entries; their conditions need not be identical. Equal values may be shown once.

Target: S protein of infectious SARS-CoV-2 strain 2019 n-CoV/USA_WA1/2020 (SARS-CoV-2, UniProt P0DTC2 14-1273)
Assay: cell-based or functional assay

Row | Binder | IC50, neutralization of infectious SARS-CoV-2 | IC50, live virus neutralization assay [ng/mL] | IC50, focus reduction neutralization test (FRNT) on Vero E6 cells [ng/mL]
1 | 2H04 (antibody, V domains shown) VH: EVQLQQSGAELVKPGASVKMSCKASGYTFTSYWITWVKQRPGQGLEWIGDIYPGSGSTKYNEKFRSEATLTVDTSSTTAYMQLSSLTSEDSAVYYCARWDFYGSRTFDYWGQGTTLTVSS VL: DIVLTQSPAILSVSPGERVSFSCRASQNIGTIIHWYQQRTNGSPRLLIKYASESVSGIPSRFSGSGSGTDFTLSINSVESEDIADYYCQQSSSWPLTFGAGTKLELK | < 500 ng/mL | – | –
2 | Hu-Ab-1 (Hu-2B04) (antibody, V domains shown) VH: EVQLQESGPGLVKPSETLSLTCTVSGFSLINYAISWVRQPAGKGLEWLGVIWTGGGTNYNAALKSRLSISKDNSKSQVSLKMNSVTAADTAVYYCARKDYYGRYYGMDYWGQGTTVTVSS VL: QAVVTQEPSLTVSPGGTVTLTCRSSTGAVTTSNYANWVQEKPGQAFRGLIGGTNNRAPGVPARFSGSLLGDKAALTLSGAQPEDEAEYFCALWYNNHWVFGGGTKLTVLG | – | 1.65 | –
3 | murine/human chimeric mAb Ab-1 (2B04) (antibody, V domains shown) VH: QVQLKQSGPGLVAPSQSLSITCTVSGFSLINYAISWVRQPPGKGLEWLGVIWTGGGTNYNSALKSRLSISKDNSKSQVFLKMNSLQTDDTARYYCARKDYYGRYYGMDYWGQGTSVTVSS VL: QAVVTQESALTTSPGETVTLTCRSSTGAVTTSNYANWVQEKPDHLFTGLIGGTNNRAPGVPARFSGSLIGDKAALTITGAQTEDEAIYFCALWYNNHWVFGGGTKLTVL | < 2 ng/mL and < 500 ng/mL | – | 1.46
